From the DeepSol protein solubility set

assay: soluble on expression in E. coli; label from the status in PepcDB or PDB records

| Sequence | soluble on expression in E. coli |
| --- | --- |
| MGSDKIHHHHHHMFIGREKELATLNGLYNSDKFEFAVIYGRRRVGKTALISHFIQDKKAIYFMGVESNEKQNLENFSQAIMEYASGIMPGTSFVSFQAAIEYVFKLCENERLVLVIDEYPYVAKASKSMASTLQMLIDKNKDNSKMMLILCGSSMSYMEDNVLAYKAPLYGRRTAQMKILPFDFEDSCKYFNGFSAEDMALIYGIVGGTPQYLLQMNDSMSVEDNIKNVFLNPASAIFEEPENLLKQEVREPAVYNAIITAVATGSSRMSEIATKIGETTSVCSQYMKNLINLGLIRKETPYGEKESRKSIYAIADNMFRFWYRFIPDNNSIISRGATELAYKRIAPNLSDYMGRIFEEICMQYMWKLLLDGESPVEFSNLGRWWGTDPQERIQTEIDIMGDQDKSTVLFGECKWINENVDVKVLEKLKKRSRLFRYENVHLFLFAKKGFTQGCIEEAGKMGNVSLVTYDQIYRYLNNIDLSQ | not soluble |
| AKVNIKPLEDKILVQANEAETTTASGLVIPDTAKEKPQEGTVVAVGPGRWDEDGEKRIPLDVAEGDTVIYSKYGGTEIKYNGEEYLILSARDVLAVVSK | soluble |
| SLVPRVMSTQHPDNARIPFFAASEVLNGEDEVREAYYVFSHFKCDEQMWDFEGKEADAHIVRKLLSSYYDFFSSRPLGKDFRLTMRVPNPEIEKGEAKLLAETLEMIPRSYDYVRSLGIEHPPIFEVILPMTRSAEEVMKVHAFYRDFVAGKGRFELLGEKVSDWLGDFLPEEIKVIPLFEDRDSLMRAAEISERYAEWAELDELRVFLARSDPAMNYGFVAATIYVKKALYDLSQLGISTYPILGVGSCPFRGGFSPKNLSVLDEFPSVYTFTVQSAFKYDYEFGDVRRAIKRAKEAARRKSDYVDEEHLQVAEKLKDGYRRRIAKIAEIVNRISSRIPRRRMRKLHVGLFGYSRGEEIKLPRAITFCASLYSIGLPSEIIGIAEMSDKDYEAVCEVFKNFDGMMESAMSLFNPESLKIVDLSMDFERAKELFGYEPDERHLEKTNEIIKQIDGDIKNLVVEAGILRGFLG | soluble |
| MKNILVFLMLGVMLSALQELRYPSGYRVNGSRVFYTYIELTEIDMTTFEILNERYAKDKNAVYYEGKVIVNVDPEDFELLGDFFGKTKNNIYIGNTIIKDADINSFELLGHSRSRDKNHVFFADKILKNADPATYIVFNNKYAKDKNHVYFWDKEIENADAPTFEVLNGEYGKDKNRVYYNSRVVRKADPATFRILEGPFSKDKNYVYVTGEIFEKADVKTFQTLGDYGYAKDKRYVYRYNKILEGEKPADFLPPPQPVIMY | not soluble |
| MSLGSEGTSAKISISAIQVNANNPIEDRLLIQRMRLNLPGGENKDFVISAVIDGHGGWQVAEYVQNNFIRIFQKELSQYMSSLVREGSANESNPISQINETDIIAGLFYSLKKTYYILDEELKSKLEVAYNLGFSKLASVGACTTVSIITEDAILTANSGDCLSVYCNENGIWLPLNEQLSAMNPQEQKRLEEIHKHEKDNLIQCKQILHEKFLMGLYTIPKYRGCYVKGILQPSRAIGDFRLKSMDFNYNWEKDLSTEKLLPTFSYVLKDKESEQSKKEQHRENEDLNEDEFPYSYDLINGNNSINMRRDSYRYFVKNPLSFPYVRSEPMLHLFFYNSLNKNLSSTDNTSVEKISPNEYSEGHHHHHH | soluble |
| MGSDKIHHHHHHMRYRKLSDYLKERYGERVQRIVIHGGFSCPNRDGTKGKGGCIYCDATGSGFTTLMRLPIREQVMEMKKKYEKRGIKKFIAYFQSFSNTYAPVEMLRERYEEALVDDSIVQLSVSTRPDLVPERVLDLFEEFKKRVDVSVELGLQTANYRTLKKINRGHTLAEFVDAAVRVKKRGIELVVHVILNLPWDDMEDVVETAKILSALDVDGVKLHSLYVVEGTKLAEMYKKGEVKICSLEEYIDRAITFLEYLSPNVVIHRLVADPPRKGTIFGNWGKSKIEIINMIEEELERRDTYQGKKFDYLNR | not soluble |
| MHDANIRVAIAGAGGRMGRQLIQAALALEGVQLGAALEREGSSLLGSDAGELAGAGKTGVTVQSSLDAVKDDFDVFIDFTRPEGTLNHLAFCRQHGKGMVIGTTGFDEAGKQAIRDAAADIAIVFAANFSVGVNVMLKLLEKAAKVMGDYTDIEIIEAHHRHKVDAPSGTALAMGEAIAHALDKDLKDCAVYSREGHTGERVPGTIGFATVRAGDIVGEHTAMFADIGERLEITHKASSRMTFANGAVRSALWLSGKESGLFDMRDVLDLNNL | soluble |
| VLNHSIEVALLAGYMASELGLNADKARRGGLLHDIGKAVDQELEGSHTTIGAELARRYGEKEDIINMILSHHGEEEPMTP | not soluble |
| MAVSVGEGPDTKPTARGQPAAVGRVVVLSGPSAVGKSTVVRCLRERIPNLHFSVSATTRCPRPGEVDGVDYHFIDPTRFQQLIDQGELLEWAEIHGGLHRSGTLAQPVRAAAATGVPVLIEVDLAGARAIKKTMPEAVTVFLAPPSWQDLQARLIGRGCETADVIQRRLDTARIELAAQGDFDKVVVNRRLESACAELVSLLVGTAPGSPGVPRGKLAAALEHHHHHH | soluble |
| MSLSEDENALSIFETNCHSGSPKKQSSSAAIHKPYLHFTMSPYHQPTSYRPRLLLSGERGSGQTSHLAPALLHTLERFSVHRLDLPALYSVSAKTPEESCAQIFREARRTVPSIVYMPHIGDWWEAVSETVRATFLTLLQDIPSFSPIFLLSTSETMYSELPEEVKCIFRIQYEEVLYIQRPIEEDRRKFFQELILNQASMAPPRRKHAALCAMEVLPLALPSPPRQLSESEKSRMEDQEENTLRELRLFLRDVTKRLATDKRFNIFSKPVDIEEVSDYLEVIKEPMDLSTVITKIDKHNYLTAKDFLKDIDLICSNALEYNPDKDPGDKIIRHRACTLKDTAHAIIAAELDPEFNKLCEEIKEARIEGHHHHHH | not soluble |
| MGSDKIHHHHHHMKSLIHCLFLIPLFFVQAHAEVTITLPDSAEPLLLNGKDITSHQLISQNGPQQLVFNARASYREFGQQKRFVSETLIVTFSGENNHYRVSLPKISSPKSAEKFNDVPQIGLTDTQGNKVAYKIDKLLKDGIQIGRNYSEEIKAYNIGQGVAAIAINQPVQMAPSTSSSASSGAASPAATSTALAAQQTTAPQGAQPVGQPTSQPNTQPVSQTGTPRRDQINVGQMLDFWYEQADEATREAFKKRIGLIEQAQRDGH | not soluble |
| MGSDKIHHHHHHMNGLFVLAYAITNLHPGAGRGYGIVDMPVQRDQMGYPIIYSSAFKGPLKALCAGDAINDHGRIDCKKKGECCCLFGSEPEEEESSKGMLNVMDLPLFSVPAPTFDGFVQVTTNYLIDRARNIFEAISHINGYLGSLGNEIKALLDAQGNKSVEVYDTEAKVVNFDPSSFKLLSSLPLFNNRLAISDDKRVIDKSLIIYTRNRLNLLTKVVEEGGLWSEEYIPMGSIFIGGMIIDNVRNKFCDELSKISCDSRLFLHHFSRIFNADKISEDVYLFYLNIGGKESIGKGLMKVFIGV | not soluble |
| MGSDKIHHHHHHMQPEFNRPEFLEGNSAEEIHERMMNNLPDDIDDMPGGFPYDMTMPAALEKDEIINFHIVRALMIAFPEYAWDEWLDLHGRQVHLTRHEAEPAFGYVKITAAEGTEILSGTVFCTAATETGPSIEYATTEDVVVGGEGSVLIPVSAVEAGTGSNVAANTVVLMMVPDKNVTEINNPEPIRGGTERETDDDFYDRIAAEYDNSMTYLGNDTDYKRWAKQAGAGDAIVISTWNGPGTVKLVLVDGNGKPANAKLVQDVYNYIVSPNDRSARLLPTGTAELTCAAATTVAVNYVIAGLSYDETTGIEQIKADFTEAVRAVYAQAKTEGVLRYNDVRPLISAIAGVEDFETFTMNGKMQNITLKSEEYPDTGTLNFS | not soluble |
| MSLHLYTKHIYFIGGKGGVGKSTSAASFAWRCAERGEKTLLISTDPAHNLGDLFHTEIGAKHKKITDNLFATEIDPEQETRRYIQSVKDNLRGMVKSTMLDEVNRQIDAAAATPGADEAAMFNAISSIVLDEQGTYDKLVFDTAPTGHTIRLLTLPEMMGVWIDGMVKKRKKINENYSNLLNDGEPVDDPIYDTLQQRKERFAAVRNVLLDPKKTGFMFVLIPERLPILETEKAVKLLAKHDLHVETLIINKILPDVADGQFLEKRRQIEQRYLQQIHNTFRKQTLLRVPLFPEDIGSIEALYHFARYLEPTAEGHHHHHH | soluble |
